Assay results reported in the supplement of paper PMC9170038.

Tested on: MS2 coat protein
Assay: apparent KD of MS2 coat protein; higher = weaker reporter binding
Conditions: Eterna round: R107
Procedure, shortened: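 Titration buffer: 100 mM Tris-HCl pH 7.5, 80 mM KCl, 4 mM MgCl2, without or with constant ligand. Designed RNA switches transcribed on-chip from Illumina sequencing clusters received SNAP-549-labelled MS2 coat protein in twofold steps from 0.7 or 1.5 nM to 3 µM. Apparent KD is the median per design of fits to normalised cluster binding curves.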

[1] = input ligand: theophylline 20 uM
[2] = input ligand: tryptophan 2.4 mM
[3] = input ligand: theophylline 2 mM

Sequence	apparent KD of MS2 coat protein (input ligand: arginine 13.2 mM)	apparent KD of MS2 coat protein [1]	apparent KD of MS2 coat protein [2]	apparent KD of MS2 coat protein (input ligand: none)	apparent KD of MS2 coat protein [3]
AUAACAUGAGGAUCACCCAUGUAAGCAGAUACCAGCUAGGAAACUAGCCCUUGGCAGCUGCAAGGUGAUCCUAAUGCAGCUGCAA [(M1)-(M2)-(T1)-(T2)-(M)'-(T)'_Design3]	61.9 nM	241 nM	158 nM	–	–
GGGUGGUAGGCGGCCGCCACUGAUUUUUAUAUAUAUAUAACAUGAGGAUCACCCAUGUAGAUAUGCAGGACCGGGCCUGUUGUUU [aaaM]	21.7 nM	37.8 nM	28.3 nM	25 nM	46.1 nM
GUGUGGCGCUCGGCCGCCACUCAGACAUGAGGAUCACCCAUGUAGAACAUGAGGAUCACCCAUGUGAGGACCGGGAGACACACGA [Exclusion Tryptophan B GF11]	164 nM	288 nM	308 nM	288 nM	404 nM
ACAUGAGGAUCACCCAUGUGUGUAAAUCCUCGAGGACCGGUACGGCCGCCACUCGAUUGAGUGUAAGUUGAAUGUAACAUUCAAC [whbob_SS_trypto A_2s9]	46 nM	134 nM	–	–	144 nM
UGUAUGUGAUCUGAUACCAGUCCAACUGGUAAAACACGAGGAUCACCCGUGUAAAAUUGGGACCCUUGGCAGCAGAUCGCAUACU	70 nM	51.9 nM	87.9 nM	87.5 nM	12.6 nM
GGGUGUGAUCCGGAUACCAGCGAACAUGAGGAUCACCCAUGUGACCUGAGAUCGGCUCUACGCCCUUGGCAGCCGCGAUCGCAGG [Same State Theophylline B GF12]	–	105 nM	13.1 nM	18.8 nM	37.9 nM
CCGAACAUGAGGAUCACCCAUGUUAGGGAUACCAGCCCAGACAUGGGCCCUUGGCAGCUCUAUAGCUGACGAAAGUCAGCAUCGG [#14 SameState-TheophyllineA]	34.9 nM	65.7 nM	44.4 nM	–	–
CGGUGUAGGGUUAAUAGGCUGAGUACAGAAGGAGCGCGAAUAAACGCAGGUAGGUCGCUGGCGAACAUGAGGAUCACCCAUGUAU [Same State Arginine A GF 30]	29.5 nM	24 nM	15.9 nM	18.4 nM	32 nM
GGAUAGGACACGGCCGCCACUACCUAGGAUACUAGCAACAUUUGGGUACACGAGGAUCACCCGUGUAGGACCGGGUGUCCUAUCG	32.6 nM	18.1 nM	19.2 nM	10.7 nM	13.6 nM
AUAAUAAUACAUGAGGAUCACCCAUGUAUGCGAGGACCGGUACGGCCGCCACUCGACCUCAUGCAUACAUGAGGAUCACCCAUGU [Same State Tryptophan A 4]	18.4 nM	55.8 nM	–	–	67.2 nM
CAUGUUGUUGAAGAUACCAGAUUCUGAACGUUCACAUGAGGAUCACCCAUGUAAGUCCGAGUCCCUUGGCAGCUUAUACAGGUGG [Reatlala]	43.9 nM	50.8 nM	47.7 nM	–	–
AAUAAACAUGAGGAUCACCCAUGUAGGGUGCGAGGACCGGUACGGCCGCCACUCGGGUGAAAACAUGAGGAUCACCCAUGUAAAA [Mat - Exclusion - Trytophan A - D23]	61.1 nM	185 nM	–	–	220 nM
GAGACAUCGGGAAGGAGCGCAUCCAAACCACACAUGAGGAUCACCCAUGUAUAAAUAUGCAUGCAGGUAGGUCGCCCGGUAUCCC [Tiisqure]	26.5 nM	40.2 nM	28.9 nM	27.8 nM	35 nM
GACGCAUGAGUUGUAAAAGCUCAUGGGUCGCGAGGACCGGUACGGCCGCCACUCGGCUGUACAUGAGGAUCACCCAUGUCAGGGU [#1 Same State - Tryptophan A Attempt #28 (HarryS)]	154 nM	434 nM	–	–	886 nM
GACCGGUUAUAGUGCGAUUGUCUUGUGGAAGGAGCGCAGAGGACUGCAGGUAGGUCGCCACAUGAGGAUCACCCAUGUCAGGAUA [Tirevete]	33.8 nM	33.4 nM	22.3 nM	23.7 nM	43.9 nM
AGUCUUGAACGAAGGAGCGACGUACAUGAGGAUCACCCAUGUGGGAGCGAAAGCUCCUAACGUCAGGUAGGUCGCGUUCGAGACA [Omei Arginine B SS A v1]	17.7 nM	21.9 nM	18.6 nM	16.7 nM	16.2 nM
AAAAUCCUACCUGAGGAUCACCCUGGUGAAGGAGCGCCCGAAAGGGCAGGUAGGUCGCACCUGAGGAUCACCCUGGUACCUAAAA [ArgAX 29 #DoubleMs2 #OpenEnded #AlternativeMS2]	82.6 nM	57.4 nM	61.8 nM	70.6 nM	48.3 nM
CUGUACAUCUCGGCCGCCACUGCAACAUGUACACAUGGACAUGUACAUGAGGAUCACCCAUGUGGCAGGACCGGGAGGUGUGCAG [SSTryp B #28]	99.8 nM	211 nM	–	–	309 nM
CCUAUGCAGUCGGCCGCCACUGAGUCCUCAAUAAUAAAUUAUUAUACAUGAGGAUCACCCAUGUACAGGACCGGGACUGUAUAGG [Ex Tryptophan B 14]	89 nM	244 nM	214 nM	122 nM	237 nM
UUAAUCUUGGUUGAAAACAAUUAAGCAGAAGGAGCGUGAUAAAACACAGGUAGGUCGCUGAAGGGAACAUGAGGAUCACCCAUGU [AstrosSSArgA#14]	25.4 nM	41.1 nM	25.6 nM	26.6 nM	31.6 nM
AAUGAGUGGUGGUCAAACAUGGGUGAUCAACGAGGACCGGUACGGCCGCCACUCGAUAACAUGAGGAUCACCCAUGUAAUAAUAA [|T'-M'-Trp-Ms2|_Design9]	55.5 nM	492 nM	–	–	683 nM
GAAGGAGAGUGAUCCACUCCUUCUCUGGAAGGAGCGAGCGAAAGCUCAGGUAGGUCGCCAGAAACAUGAGGAUCACCCAUGUAAU [(A)''-(M)'-(A)'-(Arg1)-(Arg2)-(M1)-(M2)_Design7]	61.2 nM	92.6 nM	82.3 nM	104 nM	123 nM
AUACAUGAGGAUCACCCAUGUCAUACAGAAGGAGCGUCACAUAAGACAGGUAGGUCGCUGAUAUAUACGUCACGAAUAGUGACGA [JR_SSArginiA_Sub017]	16.8 nM	23.5 nM	18.6 nM	18.6 nM	20.4 nM
UACAUGAGGAUCACCCAUGUGUAACCAGAAGGAGCGUGCGAAAGCACAGGUAGGUCGCUGGUGGGUUUAGGUUUAAUAGGUGUAU [SSAA NP+V+V2 #4 +-Same Structure]	32.8 nM	54.1 nM	34.6 nM	32.3 nM	40.6 nM
UAUCCACAUGAGGAUCACCCAUGUAGGGAAGGAGCGGUGGUUUCACCAGGUAGGUCGCCUUACUGAGGAGAACCGGUGGAAUCGU [Exclusion - Arginine A (Freestyle 29)]	23.8 nM	61.7 nM	42.6 nM	42.1 nM	105 nM
GCUGCACAUUCGGCCGCCACUGCUGUUACAGGAAGCUAUAGCUCACAUGAGGAUCACCCAUGUCCCAGGACCGGGAAAGUAUGGA [theeternabot_sameState_MS2_Trp_B_39]	41.2 nM	79.2 nM	–	–	74.2 nM
UUUAUUUAUUUAUUUAUUUAUUUAACAGAAGGAGCGUGGAUUAACACAGGUAGGUCGCUGACAUGAGGAUCACCCAUGUAUUAUU [SSAA #1]	106 nM	48 nM	35.8 nM	28.4 nM	41.6 nM
UGACAUUGCUCAGAUACCAGACAUGAGGAUCACCCAUGUACCGAGGUACCCGAAAGGAAUGUCCCUUGGCAGCUGAGCAAUGUCU [TheoBX 4 #MS2Left #Theo2 #StaticStem]	12.9 nM	15.5 nM	11 nM	–	–
